To fix the notation:
B1: LOC100129726 (parent)
chain: AKAADSPTRNDLESGLGHFSLRVH
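Note: lentivirally expressed fusions sorted by FACS into six bins by GFP to DsRed ratio, PSI derived from sequencing read proportions per bin multiplied by bin number.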

The variants in the series derive from B1. The series can be described thus: protein stability index of a GFP-peptide fusion (GPS, HEK-293T) (PSI 1-6); higher = more stable. To be noted: c terminus: a fixed tail appended.
With G17K, the protein stability index is 2.89. For the variant G17L, the protein stability index was determined as 1.65. As for G17W, the protein stability index was 2.96. The result for A4V reads 2.4.

Consider A4D, for which the protein stability index was found to be 3.87. Take A4I: the protein stability index is 2.98. Consider A4Q, for which the protein stability index was 3.15. A4P: the protein stability index was 3.06. In the case of A3E, the protein stability index is 3.8.

As for A3N, the protein stability index was 2.97. D11C: the protein stability index was 2.91. Take D11Q: the protein stability index turned out to be 2.8. As for D11S, the protein stability index came out at 2.64. On to D11P, for which the protein stability index came out at 2.35.

With D11V, the protein stability index was found to be 2.21. As for R22Q, the protein stability index turned out to be 2.73. As for R22H, the protein stability index worked out at 3.25. R22L: the protein stability index was found to be 2.7. On to R22F, for which the protein stability index worked out at 2.43. R22D: the protein stability index was found to be 4.28. For R22C, the protein stability index was 2.27. Take D5P: the protein stability index is 2.48. Turning to D5W, the protein stability index worked out at 2.14. With D5S, the protein stability index was 3.07. In the case of D5C, the protein stability index came out at 2.34. Consider D5Y, for which the protein stability index amounted to 2.3. With F19G, the protein stability index was 4.32. As for F19W, the protein stability index came out at 2.76.

Regarding F19H, the protein stability index worked out at 3.67. In the case of H24S, the protein stability index was determined as 3.6. In the case of H24R, the protein stability index is 2.79. In the case of H24L, the protein stability index amounted to 2.59.

As for H24D, the protein stability index was 3.63.

Consider P7R, for which the protein stability index turned out to be 3.56.

P7G: the protein stability index came out at 2.77. Next, S14P: 2.85. As to S14M, the protein stability index is 2.5. As to S14N, the protein stability index is 3.68.

Turning to S14H, the protein stability index is 3.21. For the variant S14A, the protein stability index amounted to 3.28. As for T8G, the protein stability index came to 3.61. On to T8Q, for which the protein stability index worked out at 3.1. The result for T8H reads 2.63. Regarding T8Y, the protein stability index is 2.75.

Regarding T8A, the protein stability index was found to be 2.95. As for L12Q, the protein stability index was determined as 4.45. The result for L12M reads 3.78; that for L12I, 3; that for L12R, 3.76. As for S6E, the protein stability index is 3.5. On to S6W, for which the protein stability index was determined as 1.92. The result for H18C reads 3.2; that for H18T, 3.05.

As to H18D, the protein stability index amounted to 4.08. On to H18P, for which the protein stability index came out at 3.04. In the case of H18Q, the protein stability index came to 3.44. Turning to H18V, the protein stability index was found to be 2.73. Take K2R: the protein stability index came out at 3.38.

For the variant K2D, the protein stability index was found to be 3.55. For the variant K2M, the protein stability index was 2.78.

With K2F, the protein stability index is 2.42.

For K2S, the protein stability index is 2.99. K2E: the protein stability index came to 3.98.

In the case of L21N, the protein stability index was determined as 4.3. L21H: the protein stability index was 3.55. Consider L21D, for which the protein stability index was determined as 5.01. Next, L21I: 2.33; S20K: 3.4. Next, S20C: 2.45; S20H: 3.35; S20Y: 1.58. The result for S20L reads 2.09; that for S20Q, 3.17. Take S20A: the protein stability index was found to be 3.29.

As for G15M, the protein stability index worked out at 2.23. For the variant G15W, the protein stability index stood at 1.57. The result for G15R reads 2.06; that for E13C, 2.31; that for E13N, 2.63. Take E13A: the protein stability index was found to be 2.26. As to E13H, the protein stability index worked out at 2.74. For the variant A1S, the protein stability index stood at 3.36. Turning to A1M, the protein stability index stood at 2.74. Take A1Y: the protein stability index amounted to 3.34. With A1T, the protein stability index came to 3.25.

For the variant A1R, the protein stability index stood at 2.74. As to N10V, the protein stability index came out at 2.56. As to N10M, the protein stability index came to 2.51. For the variant N10H, the protein stability index was found to be 3.53. In the case of R9H, the protein stability index is 3.56. In the case of R9E, the protein stability index amounted to 3.95.

As to R9F, the protein stability index turned out to be 2.4. On to R9C, for which the protein stability index worked out at 3.04. Turning to R9I, the protein stability index was 2.37.

On to R9W, for which the protein stability index was 1.86. The result for L16I reads 3.71; that for L16V, 2.38; that for L16W, 2.74. In the case of L16K, the protein stability index is 3.89. As to V23P, the protein stability index turned out to be 4.13.

Take V23L: the protein stability index turned out to be 2.88. V23H: the protein stability index turned out to be 3.55.

The values are drawn from the supplement of paper PMC10567573.
